{"source": "the supplement of paper PMC10567573", "parents": {"B1": {"name": "ZNF8 (parent)", "chain": "RTHTGEKPYTCSVCGKSFSRTTCL"}}}
{"variants_of": "B1", "experiment": "protein stability index of a GFP-peptide fusion (GPS, HEK-293T) (PSI 1-6); higher = more stable", "conditions": "c terminus: a fixed tail appended"}
{"variant": "RTHYGEKPYTCSVCGKSFSRTTCL", "note": "[T4Y]", "protein stability index": 2.27}
{"variant": "RTHWGEKPYTCSVCGKSFSRTTCL", "note": "[T4W]", "protein stability index": 1.83}
{"variant": "RTHGGEKPYTCSVCGKSFSRTTCL", "note": "[T4G]", "protein stability index": 2.44}
{"variant": "RTHFGEKPYTCSVCGKSFSRTTCL", "note": "[T4F]", "protein stability index": 1.69}
{"variant": "RTHPGEKPYTCSVCGKSFSRTTCL", "note": "[T4P]", "protein stability index": 2.22}
{"variant": "RTHDGEKPYTCSVCGKSFSRTTCL", "note": "[T4D]", "protein stability index": 2.49}
{"variant": "RTHSGEKPYTCSVCGKSFSRTTCL", "note": "[T4S]", "protein stability index": 2.77}
{"variant": "RTHMGEKPYTCSVCGKSFSRTTCL", "note": "[T4M]", "protein stability index": 2.16}
{"variant": "RTHHGEKPYTCSVCGKSFSRTTCL", "note": "[T4H]", "protein stability index": 2.99}
{"variant": "RTHRGEKPYTCSVCGKSFSRTTCL", "note": "[T4R]", "protein stability index": 2.66}
{"variant": "HTHTGEKPYTCSVCGKSFSRTTCL", "note": "[R1H]", "protein stability index": 2.85}
{"variant": "GTHTGEKPYTCSVCGKSFSRTTCL", "note": "[R1G]", "protein stability index": 3}
{"variant": "MTHTGEKPYTCSVCGKSFSRTTCL", "note": "[R1M]", "protein stability index": 2.61}
{"variant": "DTHTGEKPYTCSVCGKSFSRTTCL", "note": "[R1D]", "protein stability index": 2.85}
{"variant": "KTHTGEKPYTCSVCGKSFSRTTCL", "note": "[R1K]", "protein stability index": 2.24}
{"variant": "NTHTGEKPYTCSVCGKSFSRTTCL", "note": "[R1N]", "protein stability index": 2.6}
{"variant": "LTHTGEKPYTCSVCGKSFSRTTCL", "note": "[R1L]", "protein stability index": 1.94}
{"variant": "STHTGEKPYTCSVCGKSFSRTTCL", "note": "[R1S]", "protein stability index": 2.34}
{"variant": "PTHTGEKPYTCSVCGKSFSRTTCL", "note": "[R1P]", "protein stability index": 2.64}
{"variant": "ITHTGEKPYTCSVCGKSFSRTTCL", "note": "[R1I]", "protein stability index": 2.59}
{"variant": "VTHTGEKPYTCSVCGKSFSRTTCL", "note": "[R1V]", "protein stability index": 3.18}
{"variant": "CTHTGEKPYTCSVCGKSFSRTTCL", "note": "[R1C]", "protein stability index": 4.33}
{"variant": "ATHTGEKPYTCSVCGKSFSRTTCL", "note": "[R1A]", "protein stability index": 2.43}
{"variant": "ETHTGEKPYTCSVCGKSFSRTTCL", "note": "[R1E]", "protein stability index": 3.13}
{"variant": "TTHTGEKPYTCSVCGKSFSRTTCL", "note": "[R1T]", "protein stability index": 3.04}
{"variant": "QTHTGEKPYTCSVCGKSFSRTTCL", "note": "[R1Q]", "protein stability index": 2.33}
{"variant": "YTHTGEKPYTCSVCGKSFSRTTCL", "note": "[R1Y]", "protein stability index": 2.51}
{"variant": "FTHTGEKPYTCSVCGKSFSRTTCL", "note": "[R1F]", "protein stability index": 2.22}
{"variant": "RTHTKEKPYTCSVCGKSFSRTTCL", "note": "[G5K]", "protein stability index": 2.78}
{"variant": "RTHTHEKPYTCSVCGKSFSRTTCL", "note": "[G5H]", "protein stability index": 2.25}
{"variant": "RTHTPEKPYTCSVCGKSFSRTTCL", "note": "[G5P]", "protein stability index": 2.4}
{"variant": "RTHTLEKPYTCSVCGKSFSRTTCL", "note": "[G5L]", "protein stability index": 2.29}
{"variant": "RTHTYEKPYTCSVCGKSFSRTTCL", "note": "[G5Y]", "protein stability index": 2.15}
{"variant": "RTHTQEKPYTCSVCGKSFSRTTCL", "note": "[G5Q]", "protein stability index": 2.36}
{"variant": "RTHTIEKPYTCSVCGKSFSRTTCL", "note": "[G5I]", "protein stability index": 3.05}
{"variant": "RTHTDEKPYTCSVCGKSFSRTTCL", "note": "[G5D]", "protein stability index": 2.62}
{"variant": "RTHTCEKPYTCSVCGKSFSRTTCL", "note": "[G5C]", "protein stability index": 2.84}
{"variant": "RTHTFEKPYTCSVCGKSFSRTTCL", "note": "[G5F]", "protein stability index": 2.64}
{"variant": "RTHTREKPYTCSVCGKSFSRTTCL", "note": "[G5R]", "protein stability index": 2.5}
{"variant": "RTHTSEKPYTCSVCGKSFSRTTCL", "note": "[G5S]", "protein stability index": 3.15}
{"variant": "RTHTMEKPYTCSVCGKSFSRTTCL", "note": "[G5M]", "protein stability index": 2.48}
{"variant": "RTHTAEKPYTCSVCGKSFSRTTCL", "note": "[G5A]", "protein stability index": 2.3}
{"variant": "RTHTTEKPYTCSVCGKSFSRTTCL", "note": "[G5T]", "protein stability index": 2.4}
{"variant": "RTHTVEKPYTCSVCGKSFSRTTCL", "note": "[G5V]", "protein stability index": 2.87}
{"variant": "RTHTEEKPYTCSVCGKSFSRTTCL", "note": "[G5E]", "protein stability index": 3.25}
{"variant": "RTHTWEKPYTCSVCGKSFSRTTCL", "note": "[G5W]", "protein stability index": 2.74}
{"variant": "RTHTNEKPYTCSVCGKSFSRTTCL", "note": "[G5N]", "protein stability index": 2.66}
{"variant": "RTHTGGKPYTCSVCGKSFSRTTCL", "note": "[E6G]", "protein stability index": 2.26}
{"variant": "RTHTGFKPYTCSVCGKSFSRTTCL", "note": "[E6F]", "protein stability index": 2.11}
{"variant": "RTHTGQKPYTCSVCGKSFSRTTCL", "note": "[E6Q]", "protein stability index": 2.06}
{"variant": "RTHTGMKPYTCSVCGKSFSRTTCL", "note": "[E6M]", "protein stability index": 2.19}
{"variant": "RTHTGKKPYTCSVCGKSFSRTTCL", "note": "[E6K]", "protein stability index": 2.53}
{"variant": "RTHTGTKPYTCSVCGKSFSRTTCL", "note": "[E6T]", "protein stability index": 2.08}
{"variant": "RTHTGYKPYTCSVCGKSFSRTTCL", "note": "[E6Y]", "protein stability index": 2.11}
{"variant": "RTHTGPKPYTCSVCGKSFSRTTCL", "note": "[E6P]", "protein stability index": 2.11}
{"variant": "RTHTGVKPYTCSVCGKSFSRTTCL", "note": "[E6V]", "protein stability index": 2.04}
{"variant": "RTHTGWKPYTCSVCGKSFSRTTCL", "note": "[E6W]", "protein stability index": 2.06}
{"variant": "RTHTGLKPYTCSVCGKSFSRTTCL", "note": "[E6L]", "protein stability index": 2.1}
{"variant": "RTHTGHKPYTCSVCGKSFSRTTCL", "note": "[E6H]", "protein stability index": 2.48}
{"variant": "RTHTGIKPYTCSVCGKSFSRTTCL", "note": "[E6I]", "protein stability index": 2.75}
{"variant": "RTHTGAKPYTCSVCGKSFSRTTCL", "note": "[E6A]", "protein stability index": 2.31}
{"variant": "RTHTGCKPYTCSVCGKSFSRTTCL", "note": "[E6C]", "protein stability index": 2.28}
{"variant": "RTHTGRKPYTCSVCGKSFSRTTCL", "note": "[E6R]", "protein stability index": 1.92}
{"variant": "RTHTGNKPYTCSVCGKSFSRTTCL", "note": "[E6N]", "protein stability index": 1.96}
{"variant": "RTHTGSKPYTCSVCGKSFSRTTCL", "note": "[E6S]", "protein stability index": 1.92}
{"variant": "RTHTGDKPYTCSVCGKSFSRTTCL", "note": "[E6D]", "protein stability index": 2.9}
{"variant": "RMHTGEKPYTCSVCGKSFSRTTCL", "note": "[T2M]", "protein stability index": 2.39}
{"variant": "RWHTGEKPYTCSVCGKSFSRTTCL", "note": "[T2W]", "protein stability index": 2.2}
{"variant": "RGHTGEKPYTCSVCGKSFSRTTCL", "note": "[T2G]", "protein stability index": 2.52}
{"variant": "REHTGEKPYTCSVCGKSFSRTTCL", "note": "[T2E]", "protein stability index": 2.85}
{"variant": "RIHTGEKPYTCSVCGKSFSRTTCL", "note": "[T2I]", "protein stability index": 1.86}
{"variant": "RRHTGEKPYTCSVCGKSFSRTTCL", "note": "[T2R]", "protein stability index": 2.19}
{"variant": "RNHTGEKPYTCSVCGKSFSRTTCL", "note": "[T2N]", "protein stability index": 2.49}
{"variant": "RAHTGEKPYTCSVCGKSFSRTTCL", "note": "[T2A]", "protein stability index": 2.32}
{"variant": "RLHTGEKPYTCSVCGKSFSRTTCL", "note": "[T2L]", "protein stability index": 2.1}
{"variant": "RYHTGEKPYTCSVCGKSFSRTTCL", "note": "[T2Y]", "protein stability index": 2.07}
{"variant": "RFHTGEKPYTCSVCGKSFSRTTCL", "note": "[T2F]", "protein stability index": 2.69}
{"variant": "RCHTGEKPYTCSVCGKSFSRTTCL", "note": "[T2C]", "protein stability index": 3.48}
{"variant": "RDHTGEKPYTCSVCGKSFSRTTCL", "note": "[T2D]", "protein stability index": 2.93}
{"variant": "RVHTGEKPYTCSVCGKSFSRTTCL", "note": "[T2V]", "protein stability index": 2.55}
{"variant": "RQHTGEKPYTCSVCGKSFSRTTCL", "note": "[T2Q]", "protein stability index": 2.66}
{"variant": "RKHTGEKPYTCSVCGKSFSRTTCL", "note": "[T2K]", "protein stability index": 2.76}
{"variant": "RPHTGEKPYTCSVCGKSFSRTTCL", "note": "[T2P]", "protein stability index": 2.2}
{"variant": "RHHTGEKPYTCSVCGKSFSRTTCL", "note": "[T2H]", "protein stability index": 2.52}
{"variant": "RTHTGELPYTCSVCGKSFSRTTCL", "note": "[K7L]", "protein stability index": 2.72}
{"variant": "RTHTGEGPYTCSVCGKSFSRTTCL", "note": "[K7G]", "protein stability index": 3.25}
{"variant": "RTHTGEEPYTCSVCGKSFSRTTCL", "note": "[K7E]", "protein stability index": 2.36}
{"variant": "RTHTGECPYTCSVCGKSFSRTTCL", "note": "[K7C]", "protein stability index": 2.72}
{"variant": "RTHTGEHPYTCSVCGKSFSRTTCL", "note": "[K7H]", "protein stability index": 2.93}
{"variant": "RTHTGEDPYTCSVCGKSFSRTTCL", "note": "[K7D]", "protein stability index": 2.17}
{"variant": "RTHTGEIPYTCSVCGKSFSRTTCL", "note": "[K7I]", "protein stability index": 2.15}
{"variant": "RTHTGEAPYTCSVCGKSFSRTTCL", "note": "[K7A]", "protein stability index": 2.35}
{"variant": "RTHTGEFPYTCSVCGKSFSRTTCL", "note": "[K7F]", "protein stability index": 2.5}
{"variant": "RTHTGEMPYTCSVCGKSFSRTTCL", "note": "[K7M]", "protein stability index": 2.29}
